These results are taken from patent publication US20100129344A1, “MEDICAL USES AND THERAPIES BASED UPON THE ACTION OF AZUROCIDIN ON IGFBP-1” (priority 2005, published 2010).

Marks after values point to notes of the source that are not given here.

In data set [1] the target is T1, IGF-I (Homo sapiens, UniProt P05019). Briefly: BIAcore analysis over IGF-I biosensor surface. Type of data set: binding. The note with it: for kd (rate of dissociation, over 261-360 s) / ks (rate of association, over 21-120 s): mean ± SEM; for predicted maximum response for interaction with IGF-I: based on initial rate of association (21-120 s), proteolysed = 2-h time point. Details: purchased Kabi Pharmacia (Sweden), donated. The method, then: (§1) Recombinant pIGFBP-1 was analyzed across IGF-I (A, C) and IGF-II (B, D) biosensor surfaces. A concentration range of 50, 100, 200, 400 nM was analyzed at a flow rate of 10 μl/min. A,B: Mean sensorgrams for 400 nM IGFBP-1 (intact, n=3) and 200 nM IGFBP-1, intact (0 h, n=4) and after 2-h (n=5) and 4-h (n=3) incubations with partially purified azurocidin in a protease:substrate ratio of 1:3 500 for 2 h at 37 C. C,D: The rate of association (ks), the absolute value of the slope (dRU/dt versus RU) over the linear initial association phase (21-120 s), is shown for pIGFBP-1, intact (closed circles), and after incubation with partially purified azurocidin for 2 h at 37 C (open circles); and
(§2) Instrument and reagents (buffers, chemicals for activating and deactivated) were purchased from BIAcore (Uppsala, Sweden). IGF-I, IGF-II and des(1-3)IGF-I were immobilized on the sensor chip by amine coupling and deactivated with 0.1M ethanolamine. A reference flow cell was also prepared to correct for background and bulk refractive index contribution. After equilibration buffer to achieve a stable baseline, binding experiments was at 22 C in 2 separate experiments with the samples injected in random order. 40 μl of each sample was injected over the sensor surface at a rate of 10 μl/min (association period), followed by a 6 min wash with buffer (dissociation period). The sensor surface was regenerated with 20 μl of 100 mM HCl and washed for 6 min before the next sample. We used a 1:1 Langmuir binding interaction model for kinetic analysis using the BIAcore software and GraphPad Prism (GraphPad Software Inc, San Diego, Calif.).
Target sequence in this assay (P05019 49-118 limits assumed): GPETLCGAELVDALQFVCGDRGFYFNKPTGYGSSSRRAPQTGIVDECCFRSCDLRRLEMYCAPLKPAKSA

Data set [2] has as its target T1, IGF-I. The following applies: liver-secreted phosphoprotein, after dephosphorylation; cited from earlier work.
Target sequence in this assay (P05019 49-118): as the sequence (P05019 49-118 limits assumed) above
The subject of data set [3] is primary human skeletal myotubes. Briefly: 2-Deoxyglucose transport (glucose uptake). The following applies: for effect on glucose uptake alone: absence of exogenous IGF-II, 80 ng/ml. It counts as cell-based. The method, then: Primary human skeletal myotubes were incubated under serum-free conditions for 24 h. Glucose uptake was determined as described in the Methods. The results are the mean±SEM of four experiments using cells from different individuals each with 3 replicates; and are expressed as the percentage of uptake in the absence of IGF-II or IGFBP-1 for each. The effect of IGF-II is shown in the hatched bars. The effect of pIGFBP-1 on stimulation of glucose uptake by 10 ng/ml IGF-II was analyzed by 2-way ANOVA for each of the 20 ng/ml and 80 ng/ml concentrations; *, P<0.01, **, P<0.001, compared to no IGF-II; ††, P<0.001, compared to no IGFBP-1 or intact IGFBP-1.
Human skeletal muscle cells were isolated, with approval from the local Ethics Committee, from the muscle biopsies by trypsin digestion and were grown to confluent myoblasts and differentiated into myotubes as previously described in detail (Bouzakri et al, Diabetes, 52, 1319-1325, 2003). Muscle from 4 different subjects were individually minced before being incubated for 30 min in 5 ml of trypsin-EDTA (Invitrogen, Carlsbad, Calif.) at 37° C. under agitation. After being centrifuged (150 g), the pellet was rinsed several times in PBS. Cells were first preplated for 1 h to eliminate rapidly adherent fibroblasts. The remaining cells were then cultured in a growth medium composed of HAM F-10 supplemented with 20% fetal bovine serum (FBS; Invitrogen Stockholm, Sweden), and 1% antibiotics (Invitrogen Stockholm, Sweden). Cells were plated in 6 wells plates and cultured in growth medium at 37° C. until confluence. Differentiation into myotubes was induced by changing the medium to Dulbecco's modified Eagle's medium supplemented with 2% FBS, and 1% antibiotics.
2-Deoxyglucose transport: Glucose uptake was performed as previously described for primary human muscle cells (Bouzakri et al, Diabetologia, 47, 1314-1323, 2004). After 24-h serum starvation, myotubes were pre-incubated with or without IGF-II (10 ng/ml) and IGF-II+IGFBP-1 (intact or cleaved at 20 or 80 ng/ml) for 90 min. IGF-II and IGFBP-1 were mixed 30 min before the experiments. Cells were then washed four times with pre-warmed buffer (150 mmol/l NaCl, […] KCl, 1.2 mmol/l MgSO4, 1.2 mmol/l CaCL2, 2.5 mmol/l NaH2PO4, 10 mmol/l HEPES, pH 7.4) and glucose uptake was measured for 15 min using [3H]2-deoxyglucose (50 μmol/l, 14,800 Bq/well). Results were expressed as the percentage of glucose uptake in the absence of IGF-II or IGFBP-1.
(§3) Statistical analyses. The effect of IGF-II and IGFBP-1 in muscle cell culture was analyzed by two-way ANOVA. Where significant differences were observed, comparisons were made using the Tukey test. In the study using MCF-7 breast cancer cells the Wolcoxon Matched Pairs test was used. Statistical significance was set at P<0.05.

The target in a further data set is IGF-II (Homo sapiens, UniProt P01344). Briefly: BIAcore analysis over IGF-II biosensor surface. Type of data set: binding. Further details: IGF-I, IGF-II and des(1-3)IGF-I were immobilized on the sensor chip by amine coupling. The note with it: for kd (rate of dissociation, over 261-360 s) / ks (rate of association, over 21-120 s): mean ± SEM. The method, then:
as §1, §2
In general terms: In SPR one partner is held on a chip, and binding of the other changes the refractive index at the surface.

The test system of data set [4] is MCF-7 human breast cancer cells. Briefly: 3H-Thymidine incorporation. It counts as cell-based. The method, then: Cell studies. MCF-7 human breast cancer cells were maintained in MEM alpha ribonucleic acid-free medium supplemented with 10% foetal bovine serum, 50 Unit/ml penicillin sodium, 50 μg/ml streptomycin sulfate and 2 mM L-glutamine at 37C in 5% CO2 humidified environment.
3H-Thymidine incorporation: Experiments were carried out in 48-well plates, at 70% confluence. After a 20-h incubation in serum-free medium supplemented with 0.1% BSA, the experimental conditions were added for a further 24 h, with ^3H-thymidine (1 μCi/ml) added for the last 4 h. Cells were then washed with ice-cold 0.9% NaCl three times and incubated with ice-cold 5% TCA for 15 min at 22 C. The fixed nucleotides were solubilized in 0.1M NaOH at 22 C and subjected to liquid scintillation counting.
as §3
(Uptake of a labelled nucleoside into DNA is a usual measure of proliferation.)

The next data set has as its target T2, des(1-3)IGF-I (Homo sapiens, UniProt P05019).
T2 construct: IGF-I, IGF-II and des(1-3)IGF-I were immobilized on the sensor chip by amine coupling; purchased GroPep (Adelaide, Australia)
Put plainly: BIAcore analysis over des(1-3)IGF-I biosensor surface. Type of data set: binding. The note with it: 200 nM, 2-h and 4-h incubations with partially purified azurocidin. The method, then: Recombinant pIGFBP-1 was analyzed across a des(1-3) IGF-I biosensor surfaces with a concentration range of 50, 100, 200, 400 nM, at a flow rate of 10 μl/min. The mean sensorgrams are shown for 400 nM IGFBP-1 (intact, n=3) and 200 nM IGFBP-1, intact (0 h, n=4) and after 2-h (n=5) and 4-h (n=3) incubations with partially purified azurocidin in a protease:substrate ratio of 1:3 500 for 2 h at 37 C.
as §2

For another data set, the target named is T3, azurocidin (Homo sapiens, UniProt P20160).
T3 construct: from tissue
T3 sequence (P20160 27-248): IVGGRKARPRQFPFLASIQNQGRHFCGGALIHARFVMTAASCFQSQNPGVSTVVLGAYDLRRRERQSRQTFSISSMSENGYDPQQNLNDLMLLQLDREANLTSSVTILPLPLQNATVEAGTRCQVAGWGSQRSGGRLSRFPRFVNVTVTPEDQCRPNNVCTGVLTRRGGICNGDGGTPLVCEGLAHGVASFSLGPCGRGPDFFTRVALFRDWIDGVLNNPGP
Briefly: Stability of IGFBP-1 fragments generated in the presence of azurocidin. It counts as biochemical.

Where [5] appears, read: IGF-I surface, IGFBP-1 200 nM, proteolysis 0 h.
Setting [6] is: IGF-I surface, IGFBP-1 400 nM, proteolysis 0 h.
Where [7] appears, read: IGF-II 10 ng/ml + IGFBP-1 20 or 80 ng/ml.
Where [8] appears, read: IGFBP-1 200 nM, proteolysis 0 h.
Setting [9] is: IGFBP-1 400 nM, proteolysis 0 h.
The mark [10] stands for this setting: IGF-I surface, IGFBP-1 200 nM, proteolysis 2 h by azurocidin.
Where [11] appears, read: IGF-I surface, IGFBP-1 200 nM, proteolysis 4 h by azurocidin.
The mark [12] stands for this setting: IGFBP-1 200 nM, proteolysis 2 h.
Setting [13] is: IGFBP-1 200 nM, proteolysis 2 h by azurocidin.
Where [14] appears, read: IGFBP-1 200 nM, proteolysis 4 h.
Where [15] appears, read: IGFBP-1 200 nM, proteolysis 4 h by azurocidin.

Chain of IGF-II (P01344 25-91 limits assumed): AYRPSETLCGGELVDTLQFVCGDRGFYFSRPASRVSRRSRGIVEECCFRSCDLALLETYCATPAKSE
T2 sequence (P05019 52-118): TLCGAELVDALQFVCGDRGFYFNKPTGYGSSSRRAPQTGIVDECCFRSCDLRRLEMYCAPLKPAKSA

B1: intact pIGFBP-1: recombinant human phosphorylated IGFBP-1, intact (protein)
chain: APWQCAPCSAEKLALCPPVSASCSEVTRSAGCGCCPMCALPLGAACGVATARCARGLSCRALPGEQQPLHALTRGQGACVQESDASAPHAAEAGSPESPESTEITEEELLDNFHLMAPSEEDHSILWDAISTYDGSKALHVTNIKKWKEPCRIELYRVVESLAKAQETSGEEISKFYLPNCNKNGFYHSRQCETSMDGEAGLCWCVYPWNGKRIPGSPEIRGDPNCQIYFNVQN
Turning to B1, the “kd (rate of dissociation, over 261-360 s)” value is on record as 1.46 ± 0.19 ×10^−4 s^−1 with IGF-I [1] (setting [5]), 1.45 ± 0.02 ×10^−4 s^−1 with IGF-I [1] (setting [6]), 3.48 ± 0.40 ×10^−4 s^−1 with IGF-II (setting [8]) and 3.37 ± 0.02 ×10^−4 s^−1 in the data set with IGF-II (setting [9]). For the same molecule, the “ks (rate of association, over 21-120 s)” value is 4.29 ± 0.46 ×10^−3 s^−1 with IGF-I [1] (setting [5]), 8.21 ± 0.14 ×10^−3 s^−1 in the data set with IGF-I [1] (setting [6]), 4.47 ± 0.78 ×10^−3 s^−1 in the data set with IGF-II (setting [8]) and 8.30 ± 0.13 ×10^−3 s^−1 with IGF-II (setting [9]). Moreover, the “predicted maximum response for interaction with IGF-I” value with IGF-I [1] is given as 908±79 RU. The “reduction of affinity for IGF-I by dephosphorylation” value with IGF-I [2] is on record as “six fold”. In data set [3] (setting [7]), the “effect on IGF-II-stimulated glucose uptake” value is “inhibited in a dose-response manner”. Moreover, in data set [3], the “effect on glucose uptake alone” value is given as “no effect”. Further, the “inhibition of 3H-thymidine incorporation by pIGFBP-1 alone” value in data set [4] (without IGF-II, 4 experiments) is on record as 13-33%.

B2: proteolysed IGFBP-1: phosphorylated IGFBP-1 after incubation with partially purified azurocidin (mixture of N- and C-terminal fragments) (protein)
chain 1: APWQCAPCSAEKLALCPPVSASCSEVTRSAGCGCCPMCALPLGAACGVATARCARGLSCRALPGEQQPLHALTRGQGACVQESDASAPHAAEAGSPESPESTEITEEELLDNFHLMAPSEEDHSILWDAI
chain 2: STYDGSKALHVTNIKKWKEPCRIELYRVVESLAKAQETSGEEISKFYLPNCNKNGFYHSRQCETSMDGEAGLCWCVYPWNGKRIPGSPEIRGDPNCQIYFNVQN
As to B2, the “kd (rate of dissociation, over 261-360 s)” value is recorded as 6.40 ± 0.25 ×10^−4 s^−1 in the data set with IGF-I [1] (setting [10]), 11.36 ± 0.05 ×10^−4 s^−1 in the data set with IGF-I [1] (setting [11]), 15.99 ± 0.19 ×10^−4 s^−1 with IGF-II (setting [13]) and 27.17 ± 0.12 ×10^−4 s^−1 with IGF-II (setting [15]). In addition, the “ks (rate of association, over 21-120 s)” value was 17.26 ± 0.49 ×10^−3 s^−1 with IGF-I [1] (setting [10]), 12.69 ± 0.08 ×10^−3 s^−1 with IGF-I [1] (setting [11]), 15.43 ± 0.58 ×10^−3 s^−1 with IGF-II (setting [13]) and 12.80 ± 0.08 ×10^−3 s^−1 with IGF-II (setting [15]). In addition, the “rel ks (relative to 200 nM intact pIGFBP-1)” value in the data set with IGF-I [1] (IGF-I surface, IGFBP-1 200 nM, proteolysis 4 h) is 2.96*^†; in the data set with IGF-II (setting [14]), 2.86*^†. The “predicted maximum response for interaction with IGF-I” value with IGF-I [1] is 1156±16 RU. Moreover, the “effect of proteolysis on rate of dissociation from des(1-3)IGF-I” value with des(1-3)IGF-I is listed as “clearly increase”. Further, the “further degradation of IGFBP-1 fragments” value with azurocidin (2-h incubation at 45 C) and with azurocidin (24-h incubation at 37 C) was “no further degradation” each time. Further, the “effect on IGF-II-stimulated glucose uptake” value in data set [3] (setting [7]) was “inhibited in a dose-response manner”. Moreover, in data set [3] (IGF-II 10 ng/ml + IGFBP-1 20 or 80 ng/ml, P<0.001), the “inhibitory effect on IGF-II-stimulated glucose uptake compared with intact IGFBP-1” value is on record as “significantly less”. For the same molecule, the “effect on glucose uptake alone” value in data set [3] is recorded as “stimulated glucose uptake”. The “kd rel to IGF-I” value is recorded as 2.51^‡ in the data set with IGF-II (setting [12]) and 2.39^‡ with IGF-II (setting [14]). The “ks rel to IGF-I” value came to 0.89 with IGF-II (setting [12]) and 1.01 in the data set with IGF-II (setting [14]). In addition, in data set [4] (IGF-II 10 ng/ml + pIGFBP-1 90 ng/ml, 6 experiments), the “IGF-II-stimulated 3H-thymidine incorporation after addition of IGFBP-1” value is reported as “no inhibition”.
